From the supplement of paper PMC9732359
± gives the uncertainty stated by the source.

Test: protein stability index of a GFP-peptide fusion (yeast GPS) (PSI 1-4); higher = more stable; sorted into four equal gates, so the index is relative within each strain
Procedure, shortened: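 Plasmids isolated from each sorting gate were PCR-amplified and Illumina-sequenced, and barcodes assigned the reads to strains. The gates, four of equal size, were set by GFP/Cherry fluorescence ratio on mid-log cultures in leucine-free medium. These cultures were yeast carrying a pooled library of tiled 17-residue yeast protein peptides fused downstream of GFP on a plasmid that also expresses Cherry. The protein stability index is the sum of every gate's read frequency times its gate number.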

| Sequence | protein stability index (doa10∆) | protein stability index (pdr5∆) | protein stability index (san1∆) | protein stability index (ubr1∆) |
| --- | --- | --- | --- | --- |
| GSCTGKFGYILCVLDYD [RPB7] | 2.3 ± 0.084 | 2.54 ± 0.061 | 2.38 ± 0.067 | 2.31 ± 0.055 |
| GSFKRVKPQYDEIHIPA [BRR2] | 2.73 ± 0.1 | 3.07 ± 0.14 | 2.33 ± 0.096 | 2.46 ± 0.11 |
| GSGAPVYLTAVLEYLAA [HTA1] | 1.64 ± 0.076 | 1.7 ± 0.077 | 1.55 ± 0.12 | 1.75 ± 0.045 |
| GSHLSETEFPPFREFLQ [ECM29] | 3.12 ± 0.063 | 3.11 ± 0.071 | 3.09 ± 0.041 | 2.87 ± 0.058 |
| GSIAMARVLFDDMVEYE [CYT1] | 3.51 ± 0.18 | 3.33 ± 0.12 | 3.04 ± 0.1 | 3.35 ± 0.097 |
| GSLALLKLSMADYNGAL [POP4] | 2.33 ± 0.046 | 2.67 ± 0.058 | 2.48 ± 0.054 | 2.38 ± 0.037 |
| GSSDEDLKSLNVRDDMK [SSN2] | 3.29 ± 0.13 | 3.58 ± 0.11 | 3.38 ± 0.078 | 3.2 ± 0.11 |
| GSVELSTGDYTFTIQLL [YML103C/NUP188] | 2.05 ± 0.084 | 2.41 ± 0.072 | 1.89 ± 0.11 | 2.17 ± 0.051 |
| GSYLCTSSTPSPIKNGS [YOR098C/NUP1] | 2.95 ± 0.054 | 2.94 ± 0.054 | 2.78 ± 0.053 | 2.97 ± 0.04 |
| GTGNNSAVKRLLHVAVS [RPN2] | 2.19 ± 0.24 | 2.51 ± 0.25 |  | 1.58 ± 0.15 |
| GTQLATLKNRGLPLGIA [YGR119C/NUP57] | 2.04 ± 0.067 | 2.29 ± 0.059 | 2.57 ± 0.1 | 2.23 ± 0.031 |
| GVAASQGSMSERPPYIL [SIR2] | 2.75 ± 0.11 | 3.08 ± 0.089 | 2.72 ± 0.097 | 3.16 ± 0.085 |
| GVGILYKGMASNDERIV [BRR2] | 2.44 ± 0.098 | 2.23 ± 0.081 | 1.79 ± 0.11 | 3.15 ± 0.09 |
| GVMLWKEFDETIFNLPK [FAS1] | 1.75 ± 0.073 | 1.56 ± 0.12 | 1.15 ± 0.21 | 2.81 ± 0.2 |
| GVMSLLQKSSKSMITSE [YAR002W/NUP60] | 2.46 ± 0.06 | 2.61 ± 0.062 | 2.19 ± 0.076 | 2.95 ± 0.063 |
| GVPNYLVQLEPHLFVNG [SSN2] | 1.96 ± 0.069 | 1.97 ± 0.063 | 1.94 ± 0.084 | 1.96 ± 0.12 |
| GVRDINCVNDVLEFCKD [POP1] | 2.93 ± 0.18 | 2.82 ± 0.18 | 2.36 ± 0.24 | 3.09 ± 0.26 |
| GVRPFGVSLLIAGHDEF [PRE8] | 2.46 ± 0.1 | 1.95 ± 0.096 | 1.94 ± 0.2 | 1.93 ± 0.075 |
| GVSIENENKVIIELPNE [SRB4] | 2.77 ± 0.1 | 3.02 ± 0.1 | 3.06 ± 0.055 | 2.6 ± 0.06 |
| GVSLLIAGHDEFNGFSL [PRE8] | 1.99 ± 0.18 | 2.18 ± 0.1 | 1.97 ± 0.1 | 2.07 ± 0.093 |
| GVSSPGFSPTSPTYSPT [RPO21] | 2.82 ± 0.069 | 3 ± 0.058 | 2.82 ± 0.057 | 3.05 ± 0.055 |
| GWKYEDVVAKLEAKRKV [RPL16A] | 2.78 ± 0.082 | 1.88 ± 0.063 | 1.93 ± 0.13 | 1.88 ± 0.046 |
| GWLGALTMANLPSWSLG [ARP7] | 3.07 ± 0.078 | 3.08 ± 0.062 | 2.68 ± 0.083 | 2.92 ± 0.057 |
| GWPKLQLGPQTPAFNTA [ECM29] | 1.43 ± 0.21 | 1.48 ± 0.16 | 1.42 ± 0.17 | 1.68 ± 0.2 |
| GYALRDVQARRQFVSNV [RPP1] |  | 1.99 ± 0.16 |  |  |
| GYDPALLNILSGLPTCD [RPN2] | 2.79 ± 0.083 | 2.91 ± 0.11 | 2.39 ± 0.078 | 2.55 ± 0.1 |

| Sequence | protein stability index (doa10∆) | protein stability index (pdr5∆) | protein stability index (san1∆) | protein stability index (ubr1∆) |
| --- | --- | --- | --- | --- |
| GYDPIVSTRAIDLLWKG [PRP28] | 2.12 ± 0.18 | 2.03 ± 0.091 | 1.47 ± 0.11 | 2.6 ± 0.079 |
| GYFGKVGMRYFHKQQAH [RPL28] | 2.6 ± 0.14 | 2.76 ± 0.095 | 2.89 ± 0.12 | 2.84 ± 0.05 |
| GYLDDSEILIISSLMFD [IRR1] | 2.79 ± 0.071 | 2.91 ± 0.06 | 2.89 ± 0.07 | 2.75 ± 0.046 |
| GYSGYGNGITNTTTRVI [SNF5] | 3.64 ± 0.2 | 3.72 ± 0.24 | 2.76 ± 0.18 |  |
| GYYLSLGSGSLAAMAVL [PUP1] |  | 1.98 ± 0.29 |  |  |
| HAADSQNNKPSFVFGQA [YLR335W/NUP2] | 2.91 ± 0.11 | 2.95 ± 0.092 | 2.58 ± 0.057 | 3.15 ± 0.093 |
| HAIIIFGYPETIANSII [YMR153W/NUP53] | 1.91 ± 0.078 | 2.04 ± 0.065 | 2.17 ± 0.098 | 2.92 ± 0.046 |
| HCEDKDYKTAFSYFFES [RPN6] | 2.77 ± 0.081 | 2.83 ± 0.071 | 2.53 ± 0.076 | 3.02 ± 0.055 |
| HDAIFSIYKYIHLNELL [SNF12] | 2.31 ± 0.051 | 2.43 ± 0.046 | 1.95 ± 0.074 | 2.01 ± 0.038 |
| HDWLNALDGDLIELLEK [YCG1] |  | 3.32 ± 0.2 | 2.75 ± 0.24 | 3.55 ± 0.11 |
| HEDEKLIPTIFRYITTW [PRP8] | 2.6 ± 0.06 | 2.25 ± 0.048 | 1.9 ± 0.051 | 2.23 ± 0.033 |
| HEFFIANHDDQDDIDEM [SRP68] | 3.12 ± 0.056 | 2.64 ± 0.061 | 3.24 ± 0.04 | 3.23 ± 0.062 |
| HEFTLSFTYELKQHNQN [BRR2] | 1.98 ± 0.074 | 1.97 ± 0.054 | 2.4 ± 0.08 | 2.43 ± 0.073 |
| HEILSEPAIEEENGDSI [MED1] | 2.98 ± 0.17 | 3.11 ± 0.12 | 2.99 ± 0.19 | 3.26 ± 0.14 |
| HELREKERISVAAASKI [PRE2] | 2.67 ± 0.061 | 2.77 ± 0.049 | 2.79 ± 0.062 | 2.22 ± 0.03 |
| HELSSSHTSLVKIGKFI [SRB8] | 1.8 ± 0.042 | 2.61 ± 0.033 | 1.84 ± 0.079 | 1.63 ± 0.052 |
| HETTFMTAMRLMLKKLK [YML031W/NDC1] | 1.21 ± 0.097 | 2.56 ± 0.094 | 2.42 ± 0.1 | 2.5 ± 0.069 |
| HFGHCFNITDNGVRALF [GRR1] | 2.07 ± 0.18 | 2.65 ± 0.13 |  | 2.64 ± 0.1 |
| HFTSPIRRYCDVVAHRQ [DIS3] | 2.04 ± 0.082 | 2.21 ± 0.066 | 2.06 ± 0.1 | 1.84 ± 0.073 |
| HGMFSSASVRALIENWA [FAS1] | 1.48 ± 0.11 | 1.84 ± 0.12 | 1.48 ± 0.17 | 1.76 ± 0.064 |
| HGNLASCHGHFGHLKLA [RPO31] | 1.48 ± 0.06 | 1.45 ± 0.061 | 1.14 ± 0.1 | 1.2 ± 0.033 |
| HHRDSNFPDEDDDDSRK [SKP1] | 3 ± 0.18 | 3.55 ± 0.17 | 3.07 ± 0.14 | 3.5 ± 0.18 |
| HHYEECAERVKIQQQQP [QCR6] | 3.25 ± 0.12 | 3.04 ± 0.18 | 2.85 ± 0.11 | 3.13 ± 0.15 |
| HILRISFLDRKRAKEFI [SIN4] | 2.42 ± 0.079 | 2.67 ± 0.078 | 2.05 ± 0.063 | 2.4 ± 0.049 |
| HISFNFSMLQMAFEASA [BRR2] | 1.42 ± 0.075 | 1.45 ± 0.066 | 1.41 ± 0.23 | 1.24 ± 0.06 |
